Measurements as given in article PMC8230800, “Interaction of Temporin-L Analogues with the E. coli FtsZ Protein” (Antibiotics, 2021).
Ends that are not written are not given here.

B1: Escherichia coli FtsZ protein (enzyme, E. coli, UniProt P0A9A6 1-383, looked up)
chain: MFEPMELTNDAVIKVIGVGGGGGNAVEHMVRERIEGVEFFAVNTDAQALRKTAVGQTIQIGSGITKGLGAGANPEVGRNAADEDRDALRAALEGADMVFIAAGMGGGTGTGAAPVVAEVAKDLGILTVAVVTKPFNFEGKKRMAFAEQGITELSKHVDSLITIPNDKLLKVLGRGISLLDAFGAANDVLKGAVQGIAELITRPGLMNVDFADVRTVMSEMGYAMMGSGVASGEDRAEEAAEMAISSPLLEDIDLSGARGVLVNITAGFDLRLDEFETVGNTIRAFASDNATVVIGTSLDPDMNDELRVTVVATGIGMDKRPEITLVTNKQVQQPVMDRYQQHGMAPLTQEQKPVAKVVNDNAPQTAKEPDYLDIPAFLRKQAD
notes: also called recombinant FtsZ; source: E. coli BL21, overexpressed and purified as described previously [7]

How the values were obtained:
[1] = molecular target: T1, FtsZ (recombinant E. coli FtsZ) (Escherichia coli, UniProt P0A9A6); assay: Fluorescence binding experiment (spectrofluorimetric titration); settings: FtsZ 12 μM, peptide 1 to 180 μM, 20 °C, excitation 280 nm, emission 347 nm, one site-specific binding fit, in duplicate; read-out: Kd of FtsZ-peptide complex
T1 construct: made in house; host or cells: E. coli BL21
Protocol: Right panel (d–f): Diagram plots extrapolated from fluorescence data. The experiments were performed in duplicate and the standard deviation is reported as error bars.
(§1) Recombinant E. coli FtsZ was overexpressed and purified from E. coli BL21 strain as described previously. The purity of the protein was analyzed by SDS-PAGE 12.5% and its primary structure was validated by MALDI mapping strategy on a 5800 MALDI-TOF/TOF instrument (ABI Sciex, Foster City, CA, USA). The concentration of purified FtsZ was determined by Bradford’s method, using BSA as a standard. The protein was stored at −80 °C.
Fluorescence experiments were performed using a Fluoromax-4 spectrofluorometer from Horiba Scientific, using 1 cm optical path-length quartz cell under controlled temperature conditions (Peltier control system at 20 °C). The sample was analyzed, monitoring the fluorescence intensity of aromatic residues with an excitation wavelength of 280 nm. The wavelength range explored was 295–500 nm. […] All experiments were repeated in duplicate. The change in the fluorescence intensity of the reaction set was fitted into “one site-specific binding” equation of GraphPad Prism 5 (GraphPad Software, San Diego, CA, USA).

[2] = molecular target: T1, FtsZ (recombinant E. coli FtsZ); assay: GTPase activity assay (BIOMOL Green Pi release); format: biochemical; settings: 35 µM peptide, GTP substrate, 25 mM PIPES/NaOH pH 6.8
Protocol: The putative effect of the two TL analogues on FtsZ GTPase activity was evaluated by enzymatic assays.
The reaction was performed for 10 min and the Pi release was determined by measuring the absorbance at 620 nm following 25 min incubation. (b) Lineweaver−Burk plots from which the KM constants were calculated. (c) Calculated KM constants and Vmax for the enzymatic assays. The experiment was performed in duplicate and presented as mean ± standard error.
as §1
The amount of Pi released during the assembly of FtsZ was measured using BIOMOL Green phosphate reagent (Biomol, Milan, Italy) as described earlier. […] The reaction was performed for 10 min and stopped by addition of 100 µL BIOMOL Green reagent. The Pi release was determined after incubation at 25 °C for 25 min by measuring the absorbance at 620 nm. The background was subtracted from all the readings. The experiment was performed in duplicate. […]

[3] = molecular target: the molecule itself; assay: co-sedimentation; polymerization assay: FtsZ 12 µM in 25 mM PIPES/NaOH pH 6.8, 1 mM GTP, 25 °C 1 h, without or with 10, 30, 50, 70 µM peptide; centrifugation 14,000 rpm 60 min, pellet on SDS-PAGE, densitometry
[4] = molecular target: B1; assay: other fluorescence titration; intrinsic fluorescence of FtsZ (12 µM), excitation 280 nm, emission 347 nm, 20 °C, peptide from 1 to 180 µM, fitted to 'one site-specific binding', duplicate; settings: both partners purified

Molecule FVKWFKKFLTRILF [TRILF] has a Kd [1] of 4.3 ± 0.2 µM.

In the case of Magainin-2, the “effect on FtsZ GTPase activity (in words)” value [2] is reported as “no effect on the GTP activity”.

B1: binds [3].

B2: TRIL (Temporin-L analogue) (peptide)
peptide: FVKWFKKFLTRIL
notes: Temporin-L with Q3K, S6K and G10T; Designed from the docking model of FtsZ with TL
In the case of B2, the Kd [4] is reported as 21.4 ± 1.1 µM.

B3: Native Temporin L (peptide)
peptide: FVQWFSKFLGRIL
notes: Temporin-L, amphibian antimicrobial peptide, 13 residues; also called TL; native TL
B3 gave a Kd [4] of 11 ± 1 µM.
